Measured values: article doi:10.1101/2025.09.30.679481

Target: Bicaudal-D (D. melanogaster (endogenous in embryos)) (UniProt P16568)
Assay: co-IP

UniProt P16568, sequence (P16568 whole entry): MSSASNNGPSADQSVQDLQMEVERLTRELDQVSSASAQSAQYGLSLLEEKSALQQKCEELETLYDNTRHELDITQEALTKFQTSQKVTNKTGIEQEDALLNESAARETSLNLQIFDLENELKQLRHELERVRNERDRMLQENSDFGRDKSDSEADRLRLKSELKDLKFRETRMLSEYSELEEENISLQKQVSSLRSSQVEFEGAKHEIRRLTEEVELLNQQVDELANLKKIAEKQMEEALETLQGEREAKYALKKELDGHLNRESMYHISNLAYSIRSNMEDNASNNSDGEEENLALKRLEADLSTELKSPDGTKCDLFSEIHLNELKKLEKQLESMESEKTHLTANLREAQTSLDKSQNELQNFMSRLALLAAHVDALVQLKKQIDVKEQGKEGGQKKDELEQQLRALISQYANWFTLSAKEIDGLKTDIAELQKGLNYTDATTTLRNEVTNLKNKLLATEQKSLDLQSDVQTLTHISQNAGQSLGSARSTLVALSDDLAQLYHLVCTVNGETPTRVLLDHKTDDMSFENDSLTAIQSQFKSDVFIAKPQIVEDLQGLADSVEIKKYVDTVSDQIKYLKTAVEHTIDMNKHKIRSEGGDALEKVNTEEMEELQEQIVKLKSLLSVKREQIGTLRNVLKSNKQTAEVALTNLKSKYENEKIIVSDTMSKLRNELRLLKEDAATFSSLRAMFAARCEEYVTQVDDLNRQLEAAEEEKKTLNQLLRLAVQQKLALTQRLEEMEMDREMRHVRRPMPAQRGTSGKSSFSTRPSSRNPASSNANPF

**Q.** For Imp (natural protein), which reduction of the co-precipitate by RNase is on record?
**A.** 84%
